According to patent US20220395548A1 (MOREHOUSE SCHOOL OF MEDICINE, published 2022):

Tests used:
[1] = target: T1, purified HIV-1 gp120 (gp120-IIIB, Immuno Dx) (HIV-1 (IIIB), UniProt P04578 33-511); assay: SPR (Biacore T200), gp120 amine-coupled to CM5 chip, MoMo30 flowed over; 1:1 model fit; three independent measurements in triplicate
T1 construct: domain: gp120; also called HIV gp120; purified gp120

[2] = target: gp120 of HIV-1NL4-3 (on virus particles) (HIV-1 (NL4-3)); assay: cell-based or functional assay

B1: MoMo30 protein from Momordica balsamina (purified from leaf extract, 30 kDa cutoff retentate) (other)
chain: GGIATYWGQDTREGRLTAACATGKFQIINIGFLSTFGNGRPPQVNLTRHCSPISNGCRNVSVGVLNCRNDGVKVMLSIGGPHGSYSLSSAAEAIDLADYIWNNFLGGRSTSLRPFGDVPLDGVDFRIERGQFSHYYTMVARRLHDYGRQCSRKVYLTAAPGCRFPDKYLTELLHTGLFDYVWVRFFDDRQCQYNSVNPSGFWWSWMRWINSIPARKFYVGIPASEEAGDGYVAPEVLIKEVLPFTKKFTNYGGVMLFDLSNDVQTNYSSIISNRV
notes: also called 30 kDa MoMo protein; hevamine A-related MoMo30 protein
With B1 the Kd [1] was 6 µM, the koff [1] was 0.00242 s⁻¹ and the kon [1] was 400 M⁻¹ s⁻¹. For the same binder, the “IC50 of inhibition of HIV-1NL4-3 infectivity, MAGI cell assay” value [2] was 0.0028 µM.
